Common to all, as to test: SPR, 37 C, mutein captured, CGRP analyte
Background: SPR reads the build-up and loss of mass on a sensor chip optically.

Test [1] addresses T1, rat beta CGRP (SEQ ID NO: 83) (rat, not fully specified).
T1 construct: also called rat βCGRP; rat β-CGRP
T1 peptide: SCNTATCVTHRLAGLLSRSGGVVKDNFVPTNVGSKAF
The protocol: (§1) The Biotin CAPture Kit (GE Healthcare) was used to immobilize biotinylated lipocalin muteins to a chip surface. Muteins were biotinylated using standard NHS chemistry. Undiluted Biotin CAPture Reagent (streptavidin conjugated with ss-DNA oligo) was captured on a Sensor Chip CAP with the pre-immobilized complementary ss-DNA oligo. Thereafter, biotinylated muteins at 1 μg/mL were applied for 300 s at a flow rate of 5 μL/min.
(§2) CGRP species were applied in three concentrations of 30 nM, 3 nM and 0.3 nM at a flow rate of 30 μL/min or in a single concentration of 25 nM per cycle as shown in FIG. 2. The dilutions were injected with association times of 180 s and dissociation times of 5400 sec to obtain ka and kd information. Regeneration of the chip surface was achieved by injecting 6 M Guanidinium-HCl+0.25 M NaOH (120 s) with a flow rate of 10 μL/min. Injection of regeneration solutions was followed by an extra wash step with HBS-EP+(1×; BR-1006-69; GE Healthcare) running buffer and a stabilization period of 120 s.
(§3) The data were double-referenced by subtraction of the corresponding signals measured for the control channel (loaded with Biotin CAPture reagent only) and by subtraction of buffer injections from the binding responses. Association rate constant ka and dissociation rate constant kd for the binding reaction were determined using Biacore T200 Evaluation Software V2.0 for data processing and kinetic fitting. The data were globally fit with 1:1 binding model.

Test [2] has as its target T2, rat alpha CGRP (SEQ ID NO: 82) (rat).
T2 construct: also called rat αCGRP; rat α-CGRP
T2 peptide: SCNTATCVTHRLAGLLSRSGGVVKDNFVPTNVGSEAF
How it is done:
as §1, §2, §3

The target of test [3] is T3, human alpha CGRP (SEQ ID NO: 80) (human, not fully specified).
T3 construct: also called human αCGRP; hαCGRP
T3 peptide: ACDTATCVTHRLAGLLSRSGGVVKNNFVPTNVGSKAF
The protocol:
as §1, §2, §3

Test [4] concerns the target T4, human beta CGRP (SEQ ID NO: 81) (human, not fully specified).
T4 construct: also called human βCGRP; hβCGRP
T4 peptide: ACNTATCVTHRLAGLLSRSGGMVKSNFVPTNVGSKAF
How it is done:
as §1, §2, §3

B1: lipocalin mutein SEQ ID NO: 13 (designed binder)
chain: QDSTSDLIPAPPLSKVPLQQNFQDNQFHGKWYVVGRAGNEELREDKDPQKMEATIYELKEDKSYNVTDVGFSEKKCIYVIHTFVPGSQPGEFTLGNIKSYPGVTSALVRVVSTNYNQHAMVFFKVVKQNRELFEITLYGRTKELTSELKENFIRFSKSLGLPENHIVFPVPIDQCIDGSAWSHPQFEK
notes: biotinylated by NHS chemistry for capture in SPR
Turning to B1, the Kd (as a rule, the constant that tells how readily two partners part at equilibrium) stood at 0.111 nM in test [1], 0.28 nM in test [2], 0.075 nM in test [3] and 0.031 nM in test [4]. The koff (in general, a measure of how fast the partners let go of each other) in test [1] is 0.00035 s⁻¹; in test [2] it was 0.000525 s⁻¹; in test [3], 0.000436 s⁻¹; in test [4], 0.000366 s⁻¹. For the same molecule, the kon – broadly, the rate constant with which the complex forms – came out at 3.16e+06 M⁻¹ s⁻¹ in test [1], 1.85e+06 M⁻¹ s⁻¹ in test [2], 5.82e+06 M⁻¹ s⁻¹ in test [3] and 1.18e+07 M⁻¹ s⁻¹ in test [4].

B2: lipocalin mutein SEQ ID NO: 16 (designed binder)
chain: QDSTSDLIPAPPLSKVPLQQNFQDNQFHGKWYVVGRAGNDELREDKDPEKMEATIYELKEDKSYNVTDVGFVQKKCMYVIHTFVPGSQPGEFTLGNIKSYPGVTSGLVRVVSTNYNQHAMVFFKVVRQNRELFEITLYGRTKELTSELKENFIRFSKSLGLPENHIVFPVPIDQCIDGSAWSHPQFEK
notes: as for B1
With B2, the Kd amounted to 0.097 nM in test [1], 0.28 nM in test [2], 0.052 nM in test [3] and 0.036 nM in test [4]. The koff in test [1] was 0.000229 s⁻¹; in test [2], 0.000398 s⁻¹; in test [3], 0.000259 s⁻¹; in test [4] it was 0.000364 s⁻¹. The on-rate constant (kon) in test [1] is 2.37e+06 M⁻¹ s⁻¹; in test [2] it was 1.41e+06 M⁻¹ s⁻¹; in test [3], 5.02e+06 M⁻¹ s⁻¹; in test [4], 1.01e+07 M⁻¹ s⁻¹.

B3: lipocalin mutein SEQ ID NO: 22 (designed binder)
chain: QDSTSDLIPAPPLSKVPLQQNFQDNQFHGKWYVVGRAGNDALREDKDPEKMEATIYELKEDKSYNVTDVGLVQKKCMYVIHTFVPGGQPGEFTLGNIKSYPGVTSALVRVVSTNYNQHAMVFVKLVKQNRELFEITLYGRTKELTSELKENFIRFSKSLGLPENHIVFPVPIDQCIDGSAWSHPQFEK
notes: as for B1
As to B3, the Kd in test [1] was determined as 0.013 nM; in test [2] it was 0.033 nM; in test [3] it was 0.009 nM; in test [4], 0.003 nM. Further, the koff in test [1] amounted to 2.02e-05 s⁻¹; in test [2] it was 3.05e-05 s⁻¹; in test [3], 1.56e-05 s⁻¹; in test [4], 9.32e-06 s⁻¹. For the same molecule, the kon stood at 1.6e+06 M⁻¹ s⁻¹ in test [1], 931000 M⁻¹ s⁻¹ in test [2], 1.76e+06 M⁻¹ s⁻¹ in test [3] and 2.7e+06 M⁻¹ s⁻¹ in test [4].

B4: lipocalin mutein SEQ ID NO: 21 (designed binder)
chain: QDSTSDLIPAPPLSKVPLQQNFQDNQFHGKWYVVGRAGNDALREDKDPEKMEATIYELKEDKSYNVTDVGFVQKKCMYVIHTFVPGSQPGEFTLGNIKSYPGVTSALIRVVNTNYNQHAMVFVKLVKQNRELFEITLYGRTKELTSELKENFIRFSKSLGLPENHIVFPVPIDQCIDGSAWSHPQFEK
notes: as for B1
As for B4, the Kd turned out to be 0.018 nM in test [1], 0.053 nM in test [2], 0.014 nM in test [3] and 0.004 nM in test [4]. Also, the dissociation rate constant (koff) in test [1] was found to be 2.36e-05 s⁻¹; in test [2] it was 3.7e-05 s⁻¹; in test [3], 1.71e-05 s⁻¹; in test [4], 8.74e-06 s⁻¹. Besides, the on-rate constant (kon) in test [1] was determined as 1.34e+06 M⁻¹ s⁻¹; in test [2], 703000 M⁻¹ s⁻¹; in test [3], 1.21e+06 M⁻¹ s⁻¹; in test [4] it was 2.36e+06 M⁻¹ s⁻¹.

B5: lipocalin mutein SEQ ID NO: 7 (designed binder)
chain: QDSTSDLIPAPPLSKVPLQQNFQDNQFHGKWYVVGWAGNTLLREDKDPIKMQATIYELKEDKSYNVTWVYFSEKRCNYHIETSVPGSQPGEFTLGTIKSYPGETSILVRVVSTNYNQHAMVFFKGVSQNREIFEITLYGRTKELTSELKENFIRFSKSLGLPENHIVFPVPIDQCIDGSAWSHPQFEK
notes: as for B1
As for B5, the equilibrium dissociation constant (Kd) was found to be 0.091 nM in test [1], 0.3 nM in test [2], 0.067 nM in test [3] and 0.036 nM in test [4]. In addition, the dissociation rate constant (koff) came to 0.000276 s⁻¹ in test [1], 0.000313 s⁻¹ in test [2], 0.000249 s⁻¹ in test [3] and 0.000188 s⁻¹ in test [4]. The kon was 3.04e+06 M⁻¹ s⁻¹ in test [1], 1.04e+06 M⁻¹ s⁻¹ in test [2], 3.74e+06 M⁻¹ s⁻¹ in test [3] and 5.21e+06 M⁻¹ s⁻¹ in test [4].

B6: lipocalin mutein SEQ ID NO: 9 (designed binder)
chain: QDSTSDLIPAPPLSKVPLQQNFQDNQFHGKWYVVGWAGNTLLREDKDPIKMQATIYELKEDKSYDVTWVYLSEKKCNYHIETSVPGSQPGEFTLGTIKSYPGETSILVRVVSTNYNQHAMVFFKGMSQNREIFEITLYGRTKELASELKENFIRFSKSLGLPENHIVFPVPIDQCIDGSAWSHPQFEK
notes: as for B1
B6: the Kd in test [1] was determined as 0.075 nM; in test [2], 0.26 nM; in test [3], 0.044 nM; in test [4], 0.027 nM. The koff was determined as 0.000275 s⁻¹ in test [1], 0.000318 s⁻¹ in test [2], 0.000257 s⁻¹ in test [3] and 0.000181 s⁻¹ in test [4]. The on-rate constant (kon) came out at 3.68e+06 M⁻¹ s⁻¹ in test [1], 1.22e+06 M⁻¹ s⁻¹ in test [2], 5.88e+06 M⁻¹ s⁻¹ in test [3] and 6.8e+06 M⁻¹ s⁻¹ in test [4].

B7: lipocalin mutein SEQ ID NO: 28 (designed binder)
chain: QDSTSDLIPAPPLSKVPLQQNFQDNQFHGKWYVVGWAGNTLLREDKDPIKMQAIIYELKEDRSYNVTWVYFSEKKCNYHIETFVPGSQPGEFTLGTIKSYPGETPILVRVMSTNYNQHAMVFFKGVNQNREIFEIILYGRTKELTNELKENFIRFSKSLGLPENHIVFPVPIDQCIDGSAWSHPQFEK
notes: as for B1
On to B7, for which the Kd in test [1] is 0.032 nM; in test [2], 0.049 nM; in test [3], 0.031 nM; in test [4], 0.014 nM. For the same molecule, the koff in test [1] was 5.48e-05 s⁻¹; in test [2], 6.88e-05 s⁻¹; in test [3], 4.99e-05 s⁻¹; in test [4] it was 3.41e-05 s⁻¹. Besides, the kon in test [1] is 1.72e+06 M⁻¹ s⁻¹; in test [2], 1.41e+06 M⁻¹ s⁻¹; in test [3], 1.59e+06 M⁻¹ s⁻¹; in test [4], 2.52e+06 M⁻¹ s⁻¹.

B8: lipocalin mutein SEQ ID NO: 12 (designed binder)
chain: QDSTSDLIPAPPLSKVPLQQNFQDNQFHGKWYVVGWAGNTLLREDKDPPKMQATIYELKEDRSYNVTWVYFSEKKCNYHIETSVPGSQPGEFTLGTIQSHPGETPILVRVVSTNYNQHAMVFFKGMGQNREIFEITLYGRTKELTSELKENFIRFSKSLGLPENHIVFPVPIDQCIDGSAWSHPQFEK
notes: as for B1
Regarding B8, the Kd in test [1] came out at 0.176 nM; in test [2], 0.45 nM; in test [3], 0.15 nM; in test [4], 0.095 nM. For the same molecule, the koff was 0.000205 s⁻¹ in test [1], 0.000299 s⁻¹ in test [2], 0.000162 s⁻¹ in test [3] and 0.000104 s⁻¹ in test [4]. Moreover, the on-rate (kon) is 1.17e+06 M⁻¹ s⁻¹ in test [1], 661000 M⁻¹ s⁻¹ in test [2], 1.08e+06 M⁻¹ s⁻¹ in test [3] and 1.1e+06 M⁻¹ s⁻¹ in test [4].

B9: lipocalin mutein SEQ ID NO: 8 (designed binder)
chain: QDSTSDLIPAPPLSKVPLQQNFQDNQFHGKWYVVGWAGNTLRREDKNPTKMQATIYELKEDKSYNVTWVYFSEKKCNYHIETSVPGSQPGEFTLGTIKSYPGETSILVRVVSTNYNQHAMVFFKGVSQNREIFEITLYGRTKELTSELKENFIRFSKSLGLPENHIVFPVPIDQCIDGSAWSHPQFEK
notes: as for B1
In the case of B9, the Kd was found to be 0.349 nM in test [1], 1.14 nM in test [2], 0.288 nM in test [3] and 0.143 nM in test [4]. Besides, the koff in test [1] turned out to be 0.000636 s⁻¹; in test [2] it was 0.000837 s⁻¹; in test [3] it was 0.000595 s⁻¹; in test [4] it was 0.000529 s⁻¹. Besides, the on-rate constant (kon) worked out at 1.82e+06 M⁻¹ s⁻¹ in test [1], 734000 M⁻¹ s⁻¹ in test [2], 2.07e+06 M⁻¹ s⁻¹ in test [3] and 3.7e+06 M⁻¹ s⁻¹ in test [4].

B10: lipocalin mutein SEQ ID NO: 10 (designed binder)
chain: QDSTSDLIPAPPLSKVPLQQNFQDNQFHGKWYVVGWAGNTLLREDKNPTKMQATIYELKEDKSYNATWVYLSEKKCNYHIETSVPGSQPGEFTLGTTKSYPGETPILVRVVSTNYNQHAMVFFKGVSQNREIFEITLYGRTKELTSELKENFIRFSKSLGLPENHIVFPVPIDQCIDGSAWSHPQFEK
notes: as for B1
As to B10, the Kd was determined as 0.206 nM in test [1], 0.55 nM in test [2], 0.163 nM in test [3] and 0.076 nM in test [4]. Moreover, the koff in test [1] came to 0.000224 s⁻¹; in test [2], 0.000307 s⁻¹; in test [3], 0.000205 s⁻¹; in test [4] it was 0.000162 s⁻¹. In addition, the on-rate (kon) came to 1.08e+06 M⁻¹ s⁻¹ in test [1], 559000 M⁻¹ s⁻¹ in test [2], 1.26e+06 M⁻¹ s⁻¹ in test [3] and 2.14e+06 M⁻¹ s⁻¹ in test [4].

These data come from US20190338002A1 (Pieris, published 2019).
